Changes are numbered by the printed parent chain. Numbers in names are those of the source.
Target: the molecule itself
Experiment: SEC; analytical gel filtration on Superdex 200 10/300 GL in 20 mM Tris (pH 7.3), 180 mM NaCl, 0.1 mM EDTA, 1 mM DTT; loaded at 2-10 µM, at most three-fold diluted during the run; dimer to monomers

B1: PAPS synthase 1 wild type (enzyme, human, UniProt O43252 1-624, looked up)
chain: MEIPGSLCKKVKLSNNAQNWGMQRATNVTYQAHHVSRNKRGQVVGTRGGFRGCTVWLTGLSGAGKTTVSMALEEYLVCHGIPCYTLDGDNIRQGLNKNLGFSPEDREENVRRIAEVAKLFADAGLVCITSFISPYTQDRNNARQIHEGASLPFFEVFVDAPLHVCEQRDVKGLYKKARAGEIKGFTGIDSEYEKPEAPELVLKTDSCDVNDCVQQVVELLQERDIVPVDASYEVKELYVPENKLHLAKTDAETLPALKINKVDMQWVQVLAEGWATPLNGFMREREYLQCLHFDCLLDGGVINLSVPIVLTATHEDKERLDGCTAFALMYEGRRVAILRNPEFFEHRKEERCARQWGTTCKNHPYIKMVMEQGDWLIGGDLQVLDRVYWNDGLDQYRLTPTELKQKFKDMNADAVFAFQLRNPVHNGHALLMQDTHKQLLERGYRRPVLLLHPLGGWTKDDDVPLMWRMKQHAAVLEEGVLNPETTVVAIFPSPMMYAGPTEVQWHCRARMVAGANFYIVGRDPAGMPHPETGKDLYEPSHGAKVLTMAPGLITLEIVPFRVAAYNKKKKRMDYYDSEHHEDFEFISGTRMRKLAREGQKPPEGFMAPKAWTVLTEYYKSLEKA
notes: also called PAPSS1; PAPSS1 wild type; source: E. coli expression strains, purified (GSH sepharose, PreScission digestion, Superdex 200)
With B1 the “stoichiometry N” value was 2.

B2: PAPS synthase 1 RR111,112AA (enzyme, human, UniProt O43252 1-624, looked up)
chain: B1 chain with R111A, R112A
notes: Same construct as m1 with the double mutation made by site-directed mutagenesis; the oligonucleotides are in Information S1; also called PAPSS1 RR111,112AA; source: E. coli expression strains, purified (GSH sepharose, PreScission digestion, Superdex 200)
In the case of B2, the Kd is reported as less than 1 µM and the “stoichiometry N” value is reported as 2.

B3: PAPS synthase 1 L119K (enzyme, human, UniProt O43252 1-624, looked up)
chain: B1 chain with L119K
notes: Same construct as m1 with the point mutation made by site-directed mutagenesis; the oligonucleotides are in Information S1; also called PAPSS1 L119K; source: E. coli expression strains, purified (GSH sepharose, PreScission digestion, Superdex 200)
With B3 the Kd was less than 1 µM and the “stoichiometry N” value was 2.
